Results: publication PMC4325325

Tested on: RcsB
Test: EMSA

Substance	K half
hmsC (hmsCDE/hmsD) promoter, wild-type RcsAAB box	800 ng per 16 µL
lcrQ promoter	> 2000 ng per 16 µL
